Test results from publication PMC9138545 (2022).
Square brackets hold non-standard residues; d marks the D form. Ends that are not written are not given here. pY = N[C@@H](Cc1ccc(OP(=O)(O)O)cc1)C(=O)O

What was measured:
[1] = molecular target: C-terminal SH2 domain of PI3K regulatory subunit 1 (UniProt P27986 614-724); test: FP
[2] = molecular target: N-terminal SH2 domain of PI3K regulatory subunit 1 (UniProt P27986 321-433); test: FP
Sequence of N-terminal SH2 domain of PI3K regulatory subunit 1 (P27986 321-433): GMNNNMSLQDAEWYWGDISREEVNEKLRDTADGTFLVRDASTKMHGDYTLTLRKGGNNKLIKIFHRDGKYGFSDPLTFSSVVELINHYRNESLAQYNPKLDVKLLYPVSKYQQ

Sequence of C-terminal SH2 domain of PI3K regulatory subunit 1 (P27986 614-724): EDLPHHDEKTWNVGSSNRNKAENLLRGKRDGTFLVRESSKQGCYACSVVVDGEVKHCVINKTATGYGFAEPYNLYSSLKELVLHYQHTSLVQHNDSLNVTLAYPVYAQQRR

B1: phospho-para-Tyr IRS-1 peptide GRKGSGD(pY)MPMSPKV (peptide)
peptide: GRKGSGD[pY]MPMSPKV-NH2
Kd [1]: 2.1 nM
Kd [2]: 137 nM

B2: fluorescently labelled phospho-para-tyrosine IRS-1 peptide GRKGSGD(pY)MPMSPKS(K-FITC) (peptide)
peptide: GRKGSGDYMPMSPKSK
modifications: not fully specified; phosphotyrosine at position 8 of the peptide (tyrosine residue 632 of human IRS1); lys-carboxyfluorescein (K-FITC) at the C-terminal end
Kd [1]: 18.6 nM
Kd [2]: 408 nM
